Results taken from patent US20240409645A1 (DUALYX, published 2024).

T1: human IL-2Rβ (human, UniProt P14784 27-240, limits assumed)
T1 construct: recombinant protein, coated or immobilised; also called hu IL-2R; IL-2R beta
T1 sequence: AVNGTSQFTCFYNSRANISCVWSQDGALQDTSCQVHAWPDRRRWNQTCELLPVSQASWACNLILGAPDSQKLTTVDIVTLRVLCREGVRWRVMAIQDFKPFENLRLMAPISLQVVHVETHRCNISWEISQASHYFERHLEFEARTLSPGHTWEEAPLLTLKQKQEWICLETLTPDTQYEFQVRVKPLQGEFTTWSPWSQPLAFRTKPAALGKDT


Tests used:
human IL-2Rβ [1] = target: T1, human IL-2Rβ; assay: P.E. ELISA, coated protein
Experimental: In a binding ELISA, human or mouse IL-2Rα, IL-2Rβ and IL-2Rγ proteins were coated directly on maxisorp microtiter plates overnight at 4° C. Free binding sites were blocked using 4% Marvel in PBS for 1 hour. Next, 1:5 dilution of P.E. in 1% Marvel/PBS were added to wells and incubated for 1 hour. […] Binding specificity was determined based on O.D. at 450 nm values compared to negative controls.

human IL-2Rβ [2] = target: T1, human IL-2Rβ; assay: SPR, P.E. off-rate
Experimental: SPR was performed to determine dissociation rates using Biacore 3000 instrument (GE Healthcare). Briefly, human and mouse IL-2R proteins were immobilized on carboxylmethyl dextran sensor chip (CM5) at approximately 2500 RUs using amine coupling in acetate buffer (GE Healthcare). The VHH-containing P.E. were loaded with a flow rate of 30 uL/min and the off-rates were measured over a 120s period.

Row | Binder | P.E. binding ELISA OD (human IL-2Rβ [1]) [OD450 nm] | koff (human IL-2Rβ [2]) [s⁻¹]
1 | FJ1427 P035MP03A12 (VHH, soluble VHH in periplasmic extract; also called 21-MP03A12; clone nr) VHH: EVQLVESGGGLVQAGGSLRLSCAASGRTFSINAMGWFRQAPGKEREFVAAISRSGGSTVYVDGVKGRFTISRDNAKNTVYLQMNSLEPEDTAVYYCAATMAVGWTTRWRTADFDSWGQGTQVTVSS | 0.146 | 0.00628
2 | FJ1427_P035MP02C07 (VHH, soluble VHH in periplasmic extract; also called clone nr) VHH: QVQLVESGGGLVQAGGSLRLSCAASGRTFSINTMGWFRQAPGKEREFVAAISRSGDSTVYVDSVKGRFTISRDNAKNTVYLQMNTLKPEDTAVYYCATTVAVGWTTRWSTIDFDSWGQGTQVTVSS | 0.731 | 0.00231
3 | FJ1427_P035MP02B08 (VHH, soluble VHH in periplasmic extract; also called 16-MP02B08; clone nr) VHH: EVQLVESGGGLVQAGGSLRLSCAASGRAIENYPVGWFRQAPGKEREFVAAITWISGSTLYADSVKGRFTISRDNAKNTVYLQMSSLKPEDTALYYCAAALKTITRGQNDYSYWGQGTQVTVSS | 1.38 | 0.000141
4 | FJ1427 P035MP02B07 (VHH, soluble VHH in periplasmic extract; also called clone nr) VHH: EVQLVESGGGLVEAGGSLRLSCAASGRAFNNFPMGWFRQAPGKEREFVAAITWISGSTLYADSVKGRFTISRDKSKNTVYLQMSGLKPEDTALYYCAAALKTITRGQHDYTYWGQGTQVTVSS | 0.38 | 0.000336
5 | FJ1427_P035MP02B10 (VHH, soluble VHH in periplasmic extract; also called clone nr; 170) VHH: QVQLVESGGGLVEAGGSLRLSCAASGRAFNNFPMGWFRQAPGKEREFVAAITWISGSTLYADSVKGRFTISRDKSKNTVYLQMSGLKPEDTALYYCAAALKTITRGQHDYTYWGQGTQVTVSS | 0.476 | 0.000284
6 | FJ1427_P035MP02E10 (VHH, soluble VHH in periplasmic extract; also called clone nr) VHH: QVQLVESGGGLVQAGGSLRLSCAAAGRAIENYPVGWFRRAPGKEREFVAAITWISGSTLYADSVKGRFTISRDNAKNTVYLQMSSLKPEDTALYYCAAALKTITRGQNDYSYWGQGTQVTVSS | 1.39 | 0.000615
7 | FJ1427 P035MP02H09 (VHH, soluble VHH in periplasmic extract; also called clone nr) VHH: QLQLVESGGGLVQPGGSLRLSCAAAGRAIENYPVGWFRRAPGKEREFVAAITWISGSTLYADSVKGRFTISRDNAKNTVYLQMSSLKPEDTALYYCAAALKTITRGQNDYSYWGQGTQVTVSS | 1.51 | 0.000141
8 | FJ1427 P035MP02A07 (VHH, soluble VHH in periplasmic extract; also called clone nr) VHH: QVQLVESGGGLVQAGGSLRLSCAVSGDVFVRYTMAWFRQAPGKEREFVATVTDSGRTTEYVDSVKGRFTVSRDNAKNTVYLQMNNLKPEDTAVYYCAANTDYFRIRSLDANTWGQGTQVTVSS | 0.791 | 0.00211
9 | FJ1427_P035MP02A08 (VHH, soluble VHH in periplasmic extract; also called clone nr) VHH: EVQLVESGGGLVQAGGSLRLSCTVSGDVFVRYTMAWFRQAPGKEREFVATVTDSGRTTEYVDSVKGRFTVSRDNAKNTVYLQMNNLKPEDTAVYYCAANTDYFRIRSLDANTWGQGTQVTVSS | 1.79 | 0.00198
10 | FJ1427 P035MP02D08 (VHH, soluble VHH in periplasmic extract; also called clone nr) VHH: EVQLVESGGGLVQAGGSLRLSCVVSGDVFVRYTMAWFRQAPGKEREFVTSITDSGRTTEYVDSVKGRFTVSRDNAKNTVYLQMNNLKPEDTAVYYCAANTDYFRIRSLDANTWGQGTQVTVSS | 0.905 | 0.00236
11 | FJ1427_P035MP02F10 (VHH, soluble VHH in periplasmic extract; also called clone nr) VHH: EVQLVESGGGLVQAGGSLRLSCVVSGDVFVRYTMAWFRQAPGKEREFVAVVTDSGRTTEYVDSVKGRFTVSRDNAKNTVYLQMNNLKPEDTAVYYCAANTDYFQIRSVDNNAWGQGTQVTVSS | 0.595 | 0.000788
12 | FJ1427 P035MP02D09 (VHH, soluble VHH in periplasmic extract; also called clone nr) VHH: QVQLVESGGGLVQAGGSLRLACALSGDVFVRYTMAWFRQAPGKEREFVASVTDSGRTTDYVASVQGRFTVSRDNNKNTVYLQMNSLKPEDTAVYYCAANTDYFQIRSLDRNTWGQGTQVTVSS | 1.47 | 0.000498
13 | FJ1427 P035MP02H10 (VHH, soluble VHH in periplasmic extract; also called clone nr) VHH: EVQLVESGGGLVQAGGSLRLSCAASGDVFVRYTMAWFRQAPGKEREFVASVTDSGRTTDYVDSVKGRFTVSRDNAKNTVYLQMNNLKPEDTAVYYCAANTDYFQIKSLDRNTWGQGTQVTVSS | 0.435 | 0.000757
14 | FJ1427_P035MP02F09 (VHH, soluble VHH in periplasmic extract; also called clone nr) VHH: EVQLVESGGGLVQAGGSLRLSCAASGDVFVRYTMAWFRQAPGKEREFVASVTDSGRTTDYVDSVKGRFTVSRDNAKNTVYLQMNNLKPEDTAVYYCAANTDYFQIRSLEFNTWGQGTQVTVSS | 1.47 | 0.00107
15 | FJ1427 P035MP02F02 (VHH, soluble VHH in periplasmic extract; also called clone nr; 110) VHH: EVQLVESGGGLVQAGGSLRLACALSGDVFVRYTMAWFRQAPGKEREFVASVTDSGRTTDYVASVQGRFTVSRDNNKNTVYLQMNSLKPEDTAVYYCAANTDYFQIRSLDRNTWGQGTQVTVSS | 0.684 | 0.000617
16 | FJ1427_P035MP02C10 (VHH, soluble VHH in periplasmic extract; also called clone nr) VHH: QVQLVESGGGLVQAGGSLRLACALSGDVFVRYTMAWFRQAPGKEREFVASVTDSGRTTDYVASVQGRFTVSRDNNKNTVYLQMNSLKPEDTAVYYCAANTDYFQIRSLDRNTWGQGTQVTVSS | 1.29 | 0.000521
17 | FJ1427 P035MP02G08 (VHH, soluble VHH in periplasmic extract; also called clone nr) VHH: QVQLVESGGGLVQAGGSLRLSCTVSGDVFVRYTMAWFRQAPGKEREFVASVTDSGRTTEYVHSVRGRFTVSRDNAKNTVYLQMNNLKPEDTAVYYCAANTDYFRIRSLDANTWGQGTQVTVSS | 0.441 | 0.00178
18 | FJ1427_P035MP02G09 (VHH, soluble VHH in periplasmic extract; also called clone nr) VHH: QVQLVESGGGLVQAGGSLRLSCTVSGDVFVRYTMAWFRQAPGKEREFVALVTDSGRTTEYVDSVKGRFTVSRDNAKNTVYLQMNNLKPEDTAVYYCAANTDYFRIRSLDANTWGQGTQVTVSS | 0.527 | 0.0011
19 | FJ1427_P035MP02E08 (VHH, soluble VHH in periplasmic extract; also called clone nr) VHH: EVQLVESGGGLVQAGGSLRLSCVVSGDVFVRYTMAWFRQAPGKEREFVAVVTDSGRTTEYVDSVKGRFTVSRDNAKNTVYLQMNNLKPEDTAVYYCAANTDYFQIRSVDNNAWGQGTQVTVSS | 0.45 | 0.000846
20 | FJ1427_P035MP02D06 (VHH, soluble VHH in periplasmic extract; also called clone nr; 140) VHH: EVQLVESGGGLVQTGGSLRLSCAASGSQFINDVMGWYRQVPGKQRELVADMDDTGSTKYADSVKGRFTILRDSVKNTAYLQMSNLKPEDTGVYYCKAGLWIKGRHSDYWGQGTQVTVSS | 0.298 | 0.000374
21 | FJ1427_P035MP02B09 (VHH, soluble VHH in periplasmic extract; also called clone nr) VHH: EVQLVESGGGLVQAGGSLRLSCAASGRTFSTTEMGWFRQAPGKEREFVAAITWTGRGTMYAESVEGRFTISRENAKNMVYLQMNSLKPEDTAIYYCAAARRGRAAVRSEGGYDFWGQGTQVTVSS | 0.811 | 0.00022
22 | FJ1427_P035MP02A11 (VHH, soluble VHH in periplasmic extract; also called clone nr) VHH: EVQLVESGGGLVQAGGSLRLSCAASGRTFSTTEMGWFRQAPGKEREFVAAITWTGRGTMYAESVEGRFTISRENAKNMVYLQMNSLKPEDTAIYYCAAARRGRAAVRSEGGYDFWGQGTQATVSS | 0.891 | 0.000293
23 | FJ1427_P035MP02B03 (VHH, soluble VHH in periplasmic extract; also called clone nr) VHH: QVQLVESGGGLVQTGGSLRLSCAASGSRFVSDFMGWYRQVPGKQRELVADMADGGSARYGDSVKGRFTILRDSGNSTAYLQMSSLKPEDTGVYYCKAGLWIAGRHFDYWGQGTQVTVSS | 0.383 | 0.000215
24 | FJ1427_P035MP02C02 (VHH, soluble VHH in periplasmic extract; also called clone nr) VHH: QVQLVESGGGLVQPGGSLRLSCAASGSRFVSDFMGWYRQVPGKQRELVADMADGGSARYGDSVKGRFTILRDNMNSTAFLQMSSLKPEDTGVYYCKAGLWIAGRHFDYWGQGTQVTVSS | 0.401 | 0.00057
25 | FJ1427_P035MP02F06 (VHH, soluble VHH in periplasmic extract; also called clone nr) VHH: EVQLVESGGGLVQTGGSLRLSCAASGSRFISDFMGWYRQVPGKQRELVADMADGGSARYGDSVKGRFTILRESGNATAYLQMSSLKPEDTGVYYCKAGLWIAGRHFDYWGQGTQVTVSS | 0.214 | 0.000203
